From IntAct's records for PubMed 25416956

B1: EF-hand domain-containing protein 1 (Homo sapiens), Q5JVL4 (parent)
chain: MVSNPVHGLPFLPGTSFKDSTKTAFHRSQTLSYRNGYAIVRRPTVGIGGDRLQFNQLSQAELDELASKAPVLTYGQPKQAPPADFIPAHVAFDKKVLKFDAYFQEDVPMSTEEQYRIRQVNIYYYLEDDSMSVIEPVVENSGILQGKLIKRQRLAKNDRGDHYHWKDLNRGINITIYGKTFRVVDCDQFTQVFLESQGIELNPPEKMALDPYTELRKQPLRKYVTPSDFDQLKQFLTFDKQVLRFYAIWDDTDSMYGECRTYIIHYYLMDDTVEIREVHERNDGRDPFPLLMNRQRVPKVLVENAKNFPQCVLEISDQEVLEWYTAKDFIVGKSLTILGRTFFIYDCDPFTRRYYKEKFGITDLPRIDVSKREPPPVKQELPPYNGFGLVEDSAQNCFALIPKAPKKDVIKMLVNDNKVLRYLAVLESPIPEDKDRRFVFSYFLATDMISIFEPPVRNSGIIGGKYLGRTKVVKPYSTVDNPVYYGPSDFFIGAVIEVFGHRFIILDTDEYVLKYMESNAAQYSPEALASIQNHVRKREAPAPEAESKQTEKDPGVQELEALIDTIQKQLKDHSCKDNIREAFQIYDKEASGYVDRDMFFKICESLNVPVDDSLVKELIRMCSHGEGKINYYNFVRAFSN
partner: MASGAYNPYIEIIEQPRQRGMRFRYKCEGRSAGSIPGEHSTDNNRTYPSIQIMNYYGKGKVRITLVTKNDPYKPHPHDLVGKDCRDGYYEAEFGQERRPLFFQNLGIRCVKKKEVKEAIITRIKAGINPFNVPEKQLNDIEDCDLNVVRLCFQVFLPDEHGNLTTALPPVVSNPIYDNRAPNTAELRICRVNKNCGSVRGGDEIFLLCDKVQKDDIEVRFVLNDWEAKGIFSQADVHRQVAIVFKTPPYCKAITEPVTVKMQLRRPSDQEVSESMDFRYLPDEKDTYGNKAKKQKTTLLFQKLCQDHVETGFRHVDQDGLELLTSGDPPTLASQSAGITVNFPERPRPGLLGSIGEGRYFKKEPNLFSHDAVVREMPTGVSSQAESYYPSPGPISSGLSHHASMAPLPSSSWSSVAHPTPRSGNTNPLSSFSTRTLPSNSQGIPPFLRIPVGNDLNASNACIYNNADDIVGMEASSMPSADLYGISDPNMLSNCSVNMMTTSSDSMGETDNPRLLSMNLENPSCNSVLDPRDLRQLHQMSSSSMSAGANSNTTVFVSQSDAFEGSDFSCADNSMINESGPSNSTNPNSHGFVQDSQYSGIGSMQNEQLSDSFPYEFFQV
B2: Keratin, type II cytoskeletal 6A (Homo sapiens), P02538 (parent)
chain: MASTSTTIRSHSSSRRGFSANSARLPGVSRSGFSSVSVSRSRGSGGLGGACGGAGFGSRSLYGLGGSKRISIGGGSCAISGGYGSRAGGSYGFGGAGSGFGFGGGAGIGFGLGGGAGLAGGFGGPGFPVCPPGGIQEVTVNQSLLTPLNLQIDPTIQRVRAEEREQIKTLNNKFASFIDKVRFLEQQNKVLETKWTLLQEQGTKTVRQNLEPLFEQYINNLRRQLDSIVGERGRLDSELRGMQDLVEDFKNKYEDEINKRTAAENEFVTLKKDVDAAYMNKVELQAKADTLTDEINFLRALYDAELSQMQTHISDTSVVLSMDNNRNLDLDSIIAEVKAQYEEIAQRSRAEAESWYQTKYEELQVTAGRHGDDLRNTKQEIAEINRMIQRLRSEIDHVKKQCANLQAAIADAEQRGEMALKDAKNKLEGLEDALQKAKQDLARLLKEYQELMNVKLALDVEIATYRKLLEGEECRLNGEGVGQVNISVVQSTVSSGYGGASGVGSGLGLGGGSSYSYGSGLGVGGGFSSSSGRAIGGGLSSVGGGSSTIKYTTTSSSSRKSYKH
partner: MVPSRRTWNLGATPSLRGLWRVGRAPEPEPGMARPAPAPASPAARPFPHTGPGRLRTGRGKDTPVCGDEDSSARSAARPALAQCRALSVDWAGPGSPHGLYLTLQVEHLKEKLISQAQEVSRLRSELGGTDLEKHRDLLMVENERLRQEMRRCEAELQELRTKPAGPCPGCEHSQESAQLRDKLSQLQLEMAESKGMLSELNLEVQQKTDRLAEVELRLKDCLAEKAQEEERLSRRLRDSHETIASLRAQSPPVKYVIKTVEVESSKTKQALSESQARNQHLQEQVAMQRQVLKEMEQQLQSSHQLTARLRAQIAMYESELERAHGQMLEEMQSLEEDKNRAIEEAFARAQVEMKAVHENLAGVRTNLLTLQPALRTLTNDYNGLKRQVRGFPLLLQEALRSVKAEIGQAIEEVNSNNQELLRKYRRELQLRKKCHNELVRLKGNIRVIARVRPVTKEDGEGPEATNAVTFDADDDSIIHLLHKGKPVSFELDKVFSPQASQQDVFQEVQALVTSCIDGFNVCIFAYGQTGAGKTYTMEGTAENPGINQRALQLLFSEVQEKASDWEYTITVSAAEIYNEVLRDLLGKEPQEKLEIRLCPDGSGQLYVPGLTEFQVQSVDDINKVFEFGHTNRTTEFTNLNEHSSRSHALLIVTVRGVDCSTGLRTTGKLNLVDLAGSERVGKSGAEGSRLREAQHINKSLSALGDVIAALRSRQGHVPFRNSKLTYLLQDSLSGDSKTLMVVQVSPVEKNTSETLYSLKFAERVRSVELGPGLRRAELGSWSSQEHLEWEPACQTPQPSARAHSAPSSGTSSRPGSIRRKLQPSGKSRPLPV
B3: Chorion-specific transcription factor GCMb (Homo sapiens), O75603 (parent)
chain: MPAAAVQEAVGVCSYGMQLSWDINDPQMPQELALFDQFREWPDGYVRFIYSSDEKKAQRHLSGWAMRNTNNHNGHILKKSCLGVVVCTQACTLPDGSRLQLRPAICDKARLKQQKKACPNCHSALELIPCRGHSGYPVTNFWRLDGNAIFFQAKGVHDHPRPESKSETEARRSAIKRQMASFYQPQKKRIRESEAEENQDSSGHFSNIPPLENPEDFDIVTETSFPIPGQPCPSFPKSDVYKATCDLATFQGDKMPPFQKYSSPRIYLPRPPCSYELANPGYTNSSPYPTLYKDSTSIPNDTDWVHLNTLQCNVNSYSSYERSFDFTNKQHGWKPALGKPSLVERTNHGQFQAMATRPYYNPELPCRYLTTPPPGAPALQTVITTTTKVSYQAYQPPAMKYSDSVREVKSLSSCNYAPEDTGMSVYPEPWGPPVTVTRAASPSGPPPMKIAGDCRAIRPTVAIPHEPVSSRTDEAETWDVCLSGLGSAVSYSDRVGPFFTYNNEDF
partner: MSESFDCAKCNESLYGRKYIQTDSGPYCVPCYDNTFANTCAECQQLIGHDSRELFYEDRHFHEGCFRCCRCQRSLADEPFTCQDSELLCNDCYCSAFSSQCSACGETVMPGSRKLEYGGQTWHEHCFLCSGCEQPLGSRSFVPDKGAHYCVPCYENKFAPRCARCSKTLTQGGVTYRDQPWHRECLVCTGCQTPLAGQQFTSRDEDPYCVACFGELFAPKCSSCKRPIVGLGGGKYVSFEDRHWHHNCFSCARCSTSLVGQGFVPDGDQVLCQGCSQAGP
B4: Keratin, type II cytoskeletal 6A (Homo sapiens), P02538 (parent)
chain: B2 chain
B5: Zinc finger protein 41 (Homo sapiens), P51814 (parent)
chain: MAANGDSPPWSPALAAEGRGSSCEVRRERTPEARIHSVKRYPDLSPGPKGRSSADHAALNSIVSLQASVSFEDVTVDFSKEEWQHLDPAQRRLYWDVTLENYSHLLSVGYQIPKSEAAFKLEQGEGPWMLEGEAPHQSCSGEAIGKMQQQGIPGGIFFHCERFDQPIGEDSLCSILEELWQDNDQLEQRQENQNNLLSHVKVLIKERGYEHKNIEKIIHVTTKLVPSIKRLHNCDTILKHTLNSHNHNRNSATKNLGKIFGNGNNFPHSPSSTKNENAKTGANSCEHDHYEKHLSHKQAPTHHQKIHPEEKLYVCTECVMGFTQKSHLFEHQRIHAGEKSRECDKSNKVFPQKPQVDVHPSVYTGEKPYLCTQCGKVFTLKSNLITHQKIHTGQKPYKCSECGKAFFQRSDLFRHLRIHTGEKPYECSECGKGFSQNSDLSIHQKTHTGEKHYECNECGKAFTRKSALRMHQRIHTGEKPYVCADCGKAFIQKSHFNTHQRIHTGEKPYECSDCGKSFTKKSQLHVHQRIHTGEKPYICTECGKVFTHRTNLTTHQKTHTGEKPYMCAECGKAFTDQSNLIKHQKTHTGEKPYKCNGCGKAFIWKSRLKIHQKSHIGERHYECKDCGKAFIQKSTLSVHQRIHTGEKPYVCPECGKAFIQKSHFIAHHRIHTGEKPYECSDCGKCFTKKSQLRVHQKIHTGEKPNICAECGKAFTDRSNLITHQKIHTREKPYECGDCGKTFTWKSRLNIHQKSHTGERHYECSKCGKAFIQKATLSMHQIIHTGKKPYACTECQKAFTDRSNLIKHQKMHSGEKRYKASD
B6: TERF1-interacting nuclear factor 2 (Homo sapiens), Q9BSI4 (parent)
chain: MATPLVAGPAALRFAAAASWQVVRGRCVEHFPRVLEFLRSLRAVAPGLVRYRHHERLCMGLKAKVVVELILQGRPWAQVLKALNHHFPESGPIVRDPKATKQDLRKILEAQETFYQQVKQLSEAPVDLASKLQELEQEYGEPFLAAMEKLLFEYLCQLEKALPTPQAQQLQDVLSWMQPGVSITSSLAWRQYGVDMGWLLPECSVTDSVNLAEPMEQNPPQQQRLALHNPLPKAKPGTHLPQGPSSRTHPEPLAGRHFNLAPLGRRRVQSQWASTRGGHKERPTVMLFPFRNLGSPTQVISKPESKEEHAIYTADLAMGTRAASTGKSKSPCQTLGGRALKENPVDLPATEQKENCLDCYMDPLRLSLLPPRARKPVCPPSLCSSVITIGDLVLDSDEEENGQGEGKESLENYQKTKFDTLIPTLCEYLPPSGHGAIPVSSCDCRDSSRPL

Variants of: B1
Details: with rel_human REL

Row | effect of a mutation on the interaction | Variant
1 | disrupting interaction | A394S

Variants of: B2
Details: with kifc3_human KIFC3, Q9BVG8

Row | effect of a mutation on the interaction | Variant
2 | disrupting interaction | I462S

Variants of: B2
Details: with kifc3_human KIFC3, Q9BVG8
Remark: another data set of the same source

Row | effect of a mutation on the interaction | Variant
3 | disrupting interaction | A463P

Variants of: B2
Details: with kifc3_human KIFC3, Q9BVG8
Remark: another data set of the same source

Row | effect of a mutation on the interaction | Variant
4 | disrupting interaction | N171K

Variants of: B3
Details: with fhl3_human FHL3, Q13643

Row | effect of a mutation on the interaction | Variant
5 | disrupting interaction | R47L

Variants of: B4
Details: with tfp11_human TFIP11, Q9UBB9
Chain of tfp11_human TFIP11, Q9UBB9 (Q9UBB9 whole entry): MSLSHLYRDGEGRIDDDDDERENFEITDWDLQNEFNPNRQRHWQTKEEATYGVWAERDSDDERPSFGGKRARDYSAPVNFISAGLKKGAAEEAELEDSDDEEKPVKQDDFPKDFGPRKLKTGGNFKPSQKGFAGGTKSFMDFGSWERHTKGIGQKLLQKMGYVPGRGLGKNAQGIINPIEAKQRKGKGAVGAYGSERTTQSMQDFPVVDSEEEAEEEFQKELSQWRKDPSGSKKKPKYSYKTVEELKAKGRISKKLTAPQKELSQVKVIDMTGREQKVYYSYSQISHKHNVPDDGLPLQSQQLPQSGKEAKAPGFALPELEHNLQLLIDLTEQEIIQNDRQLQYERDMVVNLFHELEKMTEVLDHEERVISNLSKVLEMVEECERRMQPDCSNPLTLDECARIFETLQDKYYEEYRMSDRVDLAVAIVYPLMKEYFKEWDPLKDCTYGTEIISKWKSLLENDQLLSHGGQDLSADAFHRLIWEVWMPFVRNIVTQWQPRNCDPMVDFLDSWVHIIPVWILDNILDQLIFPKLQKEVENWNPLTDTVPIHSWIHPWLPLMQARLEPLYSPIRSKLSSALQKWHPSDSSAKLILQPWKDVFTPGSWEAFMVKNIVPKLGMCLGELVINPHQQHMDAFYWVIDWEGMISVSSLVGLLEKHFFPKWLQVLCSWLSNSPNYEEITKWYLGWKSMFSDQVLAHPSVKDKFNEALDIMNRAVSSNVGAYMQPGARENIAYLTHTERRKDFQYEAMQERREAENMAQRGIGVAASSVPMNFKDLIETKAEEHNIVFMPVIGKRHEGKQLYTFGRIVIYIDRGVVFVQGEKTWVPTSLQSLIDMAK

Row | effect of a mutation on the interaction | Variant
6 | disrupting interaction | A463P

Variants of: B4
Details: with tfp11_human TFIP11, Q9UBB9
Remark: another data set of the same source

Row | effect of a mutation on the interaction | Variant
7 | disrupting interaction | I462S

Variants of: B5
Details: with fam9b_human FAM9B

Row | effect of a mutation on the interaction | Variant
8 | disrupting interaction | Q111L

Variants of: B6
Details: with acd_human ACD

Row | effect of a mutation on the interaction | Variant
9 | disrupting interaction | P236S
